Data as given in patent US9150655B2, “Anti-C-met antibody and methods of use thereof” (ACADEMIA SINICA, priority 2010, dated 2015).

How the values were obtained:
c-Met932-Fc protein = biological target: T1, c-Met932-Fc protein (Homo sapiens, UniProt P08581); assay: Binding kinetics of anti-c-Met scFv by SPR (BIAcore)
T1 construct: DNA fragments encoding amino acid residues 1 to 932 and 1 to 567 of c-Met were amplified by PCR; made in house; host or cells: 293T cells, transient transfection, protein G purification from supernatant
T1 sequence (P08581 25-307): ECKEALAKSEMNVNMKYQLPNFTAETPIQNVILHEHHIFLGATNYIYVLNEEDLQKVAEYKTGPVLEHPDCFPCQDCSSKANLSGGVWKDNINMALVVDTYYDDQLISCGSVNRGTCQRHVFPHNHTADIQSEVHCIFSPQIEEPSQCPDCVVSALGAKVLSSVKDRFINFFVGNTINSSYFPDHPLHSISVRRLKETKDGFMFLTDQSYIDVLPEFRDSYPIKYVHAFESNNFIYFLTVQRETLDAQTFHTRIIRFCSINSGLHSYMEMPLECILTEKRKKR
T1 sequence (P08581 308-932): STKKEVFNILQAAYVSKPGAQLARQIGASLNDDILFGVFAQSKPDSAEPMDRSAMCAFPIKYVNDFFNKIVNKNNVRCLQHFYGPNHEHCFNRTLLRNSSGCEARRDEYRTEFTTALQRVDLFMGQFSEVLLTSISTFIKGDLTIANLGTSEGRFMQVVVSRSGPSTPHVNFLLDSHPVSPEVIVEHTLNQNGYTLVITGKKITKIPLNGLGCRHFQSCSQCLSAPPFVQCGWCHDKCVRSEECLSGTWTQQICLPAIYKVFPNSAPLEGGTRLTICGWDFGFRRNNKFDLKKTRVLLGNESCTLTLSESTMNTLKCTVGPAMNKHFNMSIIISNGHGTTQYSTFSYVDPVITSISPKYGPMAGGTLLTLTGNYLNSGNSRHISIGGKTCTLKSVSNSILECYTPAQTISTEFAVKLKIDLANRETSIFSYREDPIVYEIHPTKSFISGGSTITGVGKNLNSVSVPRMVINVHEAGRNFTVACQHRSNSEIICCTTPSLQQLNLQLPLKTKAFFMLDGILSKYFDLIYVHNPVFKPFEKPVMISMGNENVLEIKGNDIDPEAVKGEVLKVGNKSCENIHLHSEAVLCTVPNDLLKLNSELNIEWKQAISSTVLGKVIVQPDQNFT
Description: The affinity and kinetics of anti-c-Met scFv were measured by SRP in BIAcore X (GE healthcare). In BIAcore flowcell, 30 μg/ml of c-MetF932-Fc protein was coupled to EDC- and NHS-activated CM5 sensor chip followed by blocking with ethanolamine according to manufacturer's directions. Associated and dissociated phases were monitored for 3 and 5 min, respectively, under continuous flow of 30 μl/min using scFv concentrations ranging 5 to 200 nM. Regeneration was performed by injection of regenerate buffer (0.2 M NaCl, 10 mM glycine, pH 2.7). To determine binding constants, the sensorgrams were fit globally to a sample 1:1 interaction model using BIAevaluation software (GE healthcare).
Binding kinetic constants (Kon and Koff) and affinity of each soluble scFv for c-Met932-Fc protein were measured by Surface Plasmon Resonance (SPR).
Kon and Koff were measured by SRP in a BIAcore using purified scFvs, and the Kd was calculated by BIAevaluation software.

c-MetF932-Fc protein = biological target: T2, c-MetF932-Fc protein (Homo sapiens, UniProt P08581); assay: Competitive ELISA: soluble scFv inhibit HGF binding to immobilized c-Met protein
T2 construct: DNA fragments encoding amino acid residues 1 to 932 and 1 to 567 of c-Met were amplified by PCR; made in house; host or cells: 293T cells, transient transfection, protein G purification from supernatant
T2 sequence (P08581 25-307 limits assumed): as the sequence (P08581 25-307) above
T2 sequence (P08581 308-932 limits assumed): as the sequence (P08581 308-932) above
Description: To monitor inhibition effect of scFv, we coated the c-MetF932-Fc protein on a 96-well plate and blocked nonspecific binder with 3% BSA in PBS. 1 nM human HGF (R&D) plus varying concentrations of anti-c-Met scFv or normal mouse IgG were applied to the wells. The amount of HGF bound to c-Met was determined using goat anti-human HGF (R&D), following incubation of HRP-labeled mouse anti-goat IgG (Jackson ImmunoResearch) and OPD substrate (Sigma) plus H2O2. The absorbance was measured with 490 nm using a microplate reader. Inhibition percentage was calculated by the following equation: [(the absorbance of HGF bound without competitor)−(the absorbance of HGF bound with competitor)]/(the absorbance of HGF bound without competitor)×100%.
To test whether the three anti-c-Met scFvs could inhibit HGF binding to c-Met, the human lung cancer cell line H1993 was chosen to undergo competition ELISA (Lutterbach B et al. (2007) Cancer Res 67:2081-2088). […] HGF binding to H1993 cells without competitors was considered 100%. H1993 is known to express a high level of c-Met. When H1993 cells were incubated with HGF in the presence of the phage clones, the binding of HGF to H1993 cells was diminished by more than 90% by the anti-c-Met scFv PC1. PC20 inhibited more than 50% of HGF binding to c-Met (FIG. 2, panel A). The competitive inhibition of HGF by different concentrations of soluble scFvs was also tested. Normal mouse IgG (NMIgG) was used as a negative control. HGF binding to immobilized c-Met protein without competitors was considered 100%.

c-Met = biological target: T3, c-Met (Homo sapiens, UniProt P08581); assay: HGF-induced c-Met phosphorylation in A549 cells (Western blot); type: cell-based; details: A549 cells co-treated with HGF and S1 at 37° C. for 15 min; relative to cells without S1
T3 construct: endogenous in cells; host or cells: A549
Description: Since the anti-c-Met scFv S1 presented superiorly competitive capability, whether S1 would antagonize HGF to activate c-Met in cancer cells was examined. A549 cells were co-treated with HGF and S1 at 37° C. for 15 min. Total cell lysate was subjected to Western blotting using anti-tyrosine-phosphorylated c-Met antibody and an antibody against the c-Met β-chain (c-Met). Quantification of phosphorylated c-Met was based on luminescence intensity and normalized with total c-Met.

[1] = biological target: T4, endogenous c-Met in cancer cells (Homo sapiens, UniProt P08581); assay: ELISA of scFv binding to human cancer cell lines; type: cell-based
T4 construct: endogenous in cells
T4 sequence (P08581 25-1390): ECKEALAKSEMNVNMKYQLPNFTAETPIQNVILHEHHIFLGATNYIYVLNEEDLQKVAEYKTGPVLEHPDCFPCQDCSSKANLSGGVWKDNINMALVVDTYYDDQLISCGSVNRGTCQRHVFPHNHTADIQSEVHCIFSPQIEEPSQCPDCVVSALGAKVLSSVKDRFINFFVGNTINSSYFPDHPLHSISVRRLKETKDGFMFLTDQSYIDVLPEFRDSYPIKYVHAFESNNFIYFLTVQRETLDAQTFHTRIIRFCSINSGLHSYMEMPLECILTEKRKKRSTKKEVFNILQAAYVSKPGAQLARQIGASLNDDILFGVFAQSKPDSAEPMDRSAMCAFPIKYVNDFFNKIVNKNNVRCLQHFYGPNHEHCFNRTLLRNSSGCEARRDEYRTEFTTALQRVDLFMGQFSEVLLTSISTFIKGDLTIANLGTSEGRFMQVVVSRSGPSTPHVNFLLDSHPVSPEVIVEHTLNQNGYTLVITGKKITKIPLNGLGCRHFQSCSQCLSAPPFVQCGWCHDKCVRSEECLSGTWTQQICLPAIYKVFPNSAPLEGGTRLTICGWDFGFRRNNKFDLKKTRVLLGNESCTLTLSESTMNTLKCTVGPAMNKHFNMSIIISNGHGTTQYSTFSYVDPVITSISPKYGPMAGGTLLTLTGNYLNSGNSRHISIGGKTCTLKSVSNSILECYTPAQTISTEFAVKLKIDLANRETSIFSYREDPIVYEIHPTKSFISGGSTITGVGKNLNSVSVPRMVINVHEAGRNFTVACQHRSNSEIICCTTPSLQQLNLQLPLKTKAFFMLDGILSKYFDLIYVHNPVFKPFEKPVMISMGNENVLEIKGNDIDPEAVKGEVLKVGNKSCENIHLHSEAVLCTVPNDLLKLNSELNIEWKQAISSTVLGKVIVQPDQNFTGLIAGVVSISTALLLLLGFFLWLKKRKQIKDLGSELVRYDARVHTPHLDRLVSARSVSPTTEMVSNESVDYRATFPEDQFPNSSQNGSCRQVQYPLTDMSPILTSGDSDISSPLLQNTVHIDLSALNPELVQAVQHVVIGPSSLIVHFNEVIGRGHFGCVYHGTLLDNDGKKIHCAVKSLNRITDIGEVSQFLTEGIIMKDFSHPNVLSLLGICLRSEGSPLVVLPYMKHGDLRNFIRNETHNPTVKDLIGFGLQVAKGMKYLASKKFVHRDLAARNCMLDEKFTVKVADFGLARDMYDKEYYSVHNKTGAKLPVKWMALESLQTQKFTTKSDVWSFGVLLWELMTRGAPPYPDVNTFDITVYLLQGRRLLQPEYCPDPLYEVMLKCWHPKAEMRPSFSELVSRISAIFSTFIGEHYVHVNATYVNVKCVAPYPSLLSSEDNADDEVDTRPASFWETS
Description: (§1) The binding activities of anti-c-Met scFvs to endogenous c-Met were analyzed in cancer cells by ELISA (FIG. 9, panel A). […] Normal mouse IgG was used as a control antibody. FACS analysis was performed to verify that […] anti-c-Met scFvs also bound VEGF-stimulated HUVECs. Anti-CD31 antibody and control scFv were used a positive and negative control, respectively (FIG. 9, panel B).

VEGF-stimulated HUVECs = assay: FACS of scFv binding to VEGF-stimulated HUVECs; type: cell-based, human
Description: as §1

[2] = biological target: T5, endogenous c-Met on H460 cells (Homo sapiens, UniProt P08581); assay: FACS of scFv binding to H460 and c-Met knockdown H460 cells; type: cell-based
T5 construct: endogenous in cells; host or cells: H460 and MET-KD H460
T5 sequence (P08581 25-1390): as above
Description: To further confirm that the anti-c-Met scFv would bind specifically to endogenous c-Met on human cancer cells, H460 cells and c-Met knockdown H460 cells were stained with anti-c-Met scFv, either S1 or S20, and FACS analysis was carried out (FIG. 10, panel B).

c-Met567-Fc protein = biological target: T6, c-Met567-Fc protein (Homo sapiens, UniProt P08581); assay: Epitope ELISA on c-Met932-Fc and c-Met567-Fc; type: binding; details: immobilized recombinant proteins
T6 construct: DNA fragments encoding amino acid residues 1 to 932 and 1 to 567 of c-Met were amplified by PCR; made in house; host or cells: 293T cells, transient transfection, protein G purification from supernatant
T6 sequence (P08581 25-567): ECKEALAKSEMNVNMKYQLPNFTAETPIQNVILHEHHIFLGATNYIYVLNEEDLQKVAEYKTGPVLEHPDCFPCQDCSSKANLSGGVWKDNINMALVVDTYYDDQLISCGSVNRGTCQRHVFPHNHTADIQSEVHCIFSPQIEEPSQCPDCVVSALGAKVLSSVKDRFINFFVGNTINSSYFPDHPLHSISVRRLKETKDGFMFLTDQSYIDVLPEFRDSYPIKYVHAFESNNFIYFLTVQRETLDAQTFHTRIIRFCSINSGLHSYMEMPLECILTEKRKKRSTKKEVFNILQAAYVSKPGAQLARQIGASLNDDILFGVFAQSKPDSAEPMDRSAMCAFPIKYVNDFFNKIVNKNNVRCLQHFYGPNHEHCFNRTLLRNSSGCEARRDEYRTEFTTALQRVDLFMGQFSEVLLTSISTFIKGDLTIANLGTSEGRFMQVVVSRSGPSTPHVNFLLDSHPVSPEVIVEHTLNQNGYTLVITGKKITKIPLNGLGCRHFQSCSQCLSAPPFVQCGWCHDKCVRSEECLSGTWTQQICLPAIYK
Description: Therefore, binding epitopes of anti-c-Met scFvs localized within HGF binding domain of c-Met were investigated. The binding ability of anti-c-Met scFvs was examined for c-Met932-Fc protein including whole extracellular domain of c-Met, and c-Met567-Fc protein containing Sema and PSI domain, both of which have been defined as HGF binding regions (FIG. 2, panel C). The c-Met recombinant proteins were immobilized on titer wells, and incubated with anti-c-Met scFvs. Anti-c-Met polyclonal antibody and anti-E tag antibody was used as a positive and negative control, respectively. […] The binding intensity of S1 for c-Met932-Fc was similar to that for c-Met567-Fc.

[3] = purified scFv, c-MetF932-Fc on CM5 chip

B1: S1: soluble anti-c-Met scFv corresponding to phage clone PC1; VH/VL sequences in Table 1 (protein)
scFv: MAQVQLQQSGPGLVKPSQTLSLTCDISGDSVSSNSAAWNWIRQSPSRGLEWLGRTYYRSRWYNEYAVSVRGRISINAETSKNQFSLQLNSVTPEDTAIYYCARAGFCSGGNCYPGSEDAFDLWGQGTMVTVGGGGSGGGGSGGGGSDVVMTQSPPSLSVSVGDRVTITCRASQDITNDLNWYQQKPGKAPQLLIYHASELETGVPSRFSGSGFGTDFTLTISSLQPADIATYYCQQYDDLPLTFGGGTKVEIKR
modifications: left off: small tags and cut ends
- Kd (c-Met932-Fc protein; purified scFv 5 to 200 nM, c-MetF932-Fc coupled to CM5 chip, Kd calculated by BIAevaluation software): 6.82 nM
- Koff (c-Met932-Fc protein; [3]): 0.00134 s⁻¹
- Kon (c-Met932-Fc protein; [3]): 215000 M⁻¹ s⁻¹
- IC50 (c-MetF932-Fc protein; 1 nM human HGF, immobilized c-Met protein, soluble scFv): 27.4 nM
- Inhibition of binding activity of HGF to c-Met (c-MetF932-Fc protein; different concentrations of soluble scFv): dose-dependently inhibited
- Inhibition of HGF-induced c-Met phosphorylation (c-Met): 65.7%
- Reactivity with A498, U2OS and NNM cells ([1]; A498, U2OS, NNM cells): did not react
- Binding to human cancer cell lines ([1]; SKOV3, Mahlavu, SAS, PC3, MDA-MB-231, HCT116, Paca-2, NPC-TW04, H1993 cells, vs control antibody): found to bind
- Binding to VEGF-stimulated HUVECs (VEGF-stimulated HUVECs): bound
- Binding activity in c-Met knockdown H460 cells ([2]; c-Met knockdown H460): dramatically decreased
- Binding to H460 cells ([2]; c-Met wildtype H460): able to bind
- Binding to c-Met567-Fc compared to c-Met932-Fc (c-Met567-Fc protein): similar
